Reference: patent US9657104B2, “Anti-c-Met/anti-EGFR bispecific antibodies” (Samsung Electronics Co., Ltd., priority 2013, dated 2017)

Test system: c-Met and EGFR
Assay: Co-localization of c-Met and EGFR by confocal microscopy
Assay type: cell-based
Settings: 1 μg/mL, 37° C., 4 hours; MKN45 and EBC1 cell lines; FIGS. 7 and 8
Procedure: The MKN45 cell line and the EBC1 cell line were prepared in amounts of 4×10^4 cell/well, respectively, to which L3-1Y-IgG2 prepared in Reference Example 1, anti-EGFR scFv prepared in Reference Example 2, and the anti-c-Met/anti-EGFR bispecific antibody ME03S prepared in Example 1 were each added individually or in combination to result in the concentration of 1 μg/mL per well (in case of the combination treatment, to result in 1 μg/mL each) and treated at 37° C. for 4 hours. The cells were treated with 4% (v/v) formaldehyde for 15 min to immobilize them on a plate, and washed three times with PBS. Thereafter, the cells were treated with a blocking buffer (0.5% triton x-100 and 5% donkey serum) at a room temperature for one hour and then treated with a 1:100 dilution of the first antibodies (c-Met primary antibody; #FAB3582A, R&D systems, EGFR primary antibody; #5616, Cell signaling) against c-Met and EGFR, respectively in amounts of 100 μA at 4° C. for 15 hours. After the cells were washed three time with PBS, they were treated with a 1:2000 dilution of the secondary antibody (#A21433, Invitrogen) in an amount of 100 μA at a room temperature for 1 hour and washed three times with PBS to prepare a plate with a mounting medium (#H-1200, Vector).

B1: anti-EGFR scFv: scFv with heavy chain variable region SEQ ID NO: 109, (GGGGS)3 linker, light chain variable region SEQ ID NO: 111 (antibody, V domains shown)
VH: QVQLVQSGAEVKKPGSSVKVSCKASGFTFTDYKIHWVRQAPGQGLEWMGYFNPNSGYSTYAQKFQGRVTITADKSTSTAYMELSSLRSEDTAVYYCARLSPGGYYVMDAWGQGTTVTVSS
VL: DIQMTQSPSSLSASVGDRVTITCRASQGINNYLNWYQQKPGKAPKRLIYNTNNLQTGVPSRFSGSGSGTEFTLTISSLQPEDFATYYCLQHNSFPTFGQGTKLEIKRT
modifications: (GGGGS)3 linker; Synthetic (heavy-chain variable region of anti-EGFR antibody); Synthetic (light-chain variable region of anti-EGFR antibody)
location of c-Met and EGFR in the cells: EGFR still locates on cell membranes
